Measured values as given in US6849712B1, “Peptides with β1 integrin subunit dependent cell adhesion modulating activity” (Regents of the University of Minnesota, priority 1998, dated 2005).
“Also recorded” adds a separate entry of the source. Where no end group is shown, it is not given here. [ ]: non-standard residue; d: D form.

Assays:
[1] = molecular target: T1, α5β1 integrin (Homo sapiens, UniProt P05556+P08648); test: Inhibition of α5β1 integrin dependent Mn+2 stimulated adhesion of K562 cells to fibronectin (FN); type: cell-based; details: for inhibition of K562 adhesion to FN at the maximal concentration tested: 0.84 mM peptide, K562 cells stimulated with 1 mM MnCl2
T1 construct: erythroleukemic cell line K562, which expresses α5β1 but not α4β1 integrin; endogenous in cells; host or cells: K562 cells
Experimental: The cell adhesion assay was carried out as described above. […] Each data point represents the mean of triplicate determinations and the error bars represent the standard deviation of the mean. The solid black line represents adhesion to the negative control substrate, BSA.

[2] = molecular target: α4β1 integrin (Homo sapiens, UniProt P05556+P13612); test: Inhibition of α4β1 dependent adhesion of 8A2 stimulated Ramos cells to IIICS-GST; type: cell-based; parameters: endogenous in cells; host or cells: Ramos cells; details: Ramos cells activated with mAb 8A2, preincubated with peptide, result in words
Source text: IIICS-GST is recombinantly produced fusion protein which contains a fragment from the type III CS region (“IIICS”) of plasma fibronectin fused to glutathione-S-transferase (“GST”). The fibronectin fragment corresponds to fibronectin amino acid residues 1961 to 2039 (sequence numbering for fibronectin as designated in U.S. Pat. No. 4,839,464) and includes the […] (SEQ ID NO:46) amino acid sequence (“CS1”; fibronectin residues 1961-1985). […] In the assay, a 96-well plate was coated with the substrate IIICS-GST. Ramos cells stimulated with the β1 activating monoclonal antibody 8A2 (“Ab 8A2”) were preincubated with one of the peptides to be evaluated for their ability to adhere to IIICS-GST.
The fusion protein can be constructed by first using PCR primers to amplify the coding sequence for residues 1961-2039 of plama fibronectin. The PCR product can be introduced into a suitable bacterial expression vector in frame with the gene for GST. The resulting vector can be transformed and expressed in a suitable host cell, such as E Coli, to produce the fusion protein. If desired, the fusion protein can be purified using a glutathione column.
A 96-well plate was coated in triplicate with […] of IIICS-GST diluted to […] in PBS containing 1 mM CaCl2, MgCl2 (“PBS/cations”) and incubated overnight at 37° C. The IIICS-GST solution was removed and the wells were blocked with 150 μ/well of PBS/cations containing 0.3% BSA for 1-2 hours at 37° C. During the assay each well contained 100 μl of Ramos cells (10,000 cells/well) with or without peptide. Ramos cells were washed 3 times in adhesion media (DMEM without phenol red containing 20 mM HEPES and 3 mg/ml BSA). Cells were counted and resuspended at 200,000 cells/ml. Concentrated Ramos cells were labeled for 20 minutes at 37° C. with 50 μg of the fluorescent label BCECF resuspended in 30 μl of dimethylsulfoxide (“DMSO”). The labeled cells were centrifuged and resuspended in adhesion media at a concentration of 200,000 cells/ml. The cells were activated with the activating Ab 8A2 at a concentration of 2 μg/ml purified IgG or 1:1000 culture supernatant.
While the cells were being labeled, inhibiting peptide dilutions were prepared. Lyophilized peptides were weighed and resuspended in adhesion media at a stock concentration of twice the maximal inhibitory concentration. If a peptide was difficult to get into solution, it was initially resuspended in 30 μl of DMSO. If a peptide needed to be suspended in DMSO, all of the eptides in that particular experiment (including the controls) were suspended in 30 μl of DMSO. […] The dose-dependent dilutions of peptides were prepared using adhesion media to dilute the stock peptide. Labeled cells were mixed with peptide dilutions for 5 minutes at 37° C. at a final concentration of 100,000 cells/ml and appropriate final peptide concentrations.
The blocking solution was removed from the 96-well plate and the cell/peptide mixture is added at 100 μl/well (10,000 cells/well) and incubated for 30 minutes at 37° C. An aliquot of standard cells/peptide (100 μl) was placed at 37° C. for quantitating adhesion. Using aspiration, non-adherent cells were removed from the plate. The standard cells were centrifuged and resuspended in […] of adhesion media. The standard cells were added to empty wells at 100, 80, 60, 40, 20 and 0 μl /well representing 100%, 80%, 60%, 40%, 20% and 0% adhesion, respectively. The plate fluorescence was read at excitation 485 and emission 530. Cell adhesion was represented as percent input cells remaining adherent and was determined by a standard curve of the fluorescence obtained with the standard cells. The experimental fluorescence readings were extrapolated from the standard curve to obtain percent adhesion.

[3] = system: peripheral blood mononuclear cells and spleen cells; details: reported, Wahl et al.; cited from earlier work
[4] = in vivo rat model, reported; cited from earlier work
[5] = system: α2β1 and α3β1 integrin; test: Inhibition of α2β1, α3β1 integrin dependent human melanoma M14#5 cell adhesion to laminin and type IV collagen; type: cell-based; details: 0.5 mg/ml peptide (0.42 mM), 30 minutes
Experimental: An experiment was conducted to examine the ability of FN-C/H V+Y (SEQ ID NO:1) to inhibit α2β1, α3β1 integrin dependent cell adhesion using an assay based on human melanoma cells (M14#5).
Laminin, type IV collagen and BSA were coated overnight in a 96 well microtiter plate at 10 μg/ml and blocked with 0.3% BSA. M14#5 cells were preincubated with 0.5 mg/ml of peptide (equivalent to 0.42 mM FN-C/H V and scrambled FN-C/H V and 0.17 mM CSI) and allowed to adhere to substrates for 30 minutes.

[6] = molecular target: α5β1 integrin (UniProt P08648 42-1049; P05556 21-798); test: cell-based or functional assay
α5β1 integrin (UniProt P08648 42-1049; P05556 21-798), sequence (P08648 42-1049, chain 1 of 2): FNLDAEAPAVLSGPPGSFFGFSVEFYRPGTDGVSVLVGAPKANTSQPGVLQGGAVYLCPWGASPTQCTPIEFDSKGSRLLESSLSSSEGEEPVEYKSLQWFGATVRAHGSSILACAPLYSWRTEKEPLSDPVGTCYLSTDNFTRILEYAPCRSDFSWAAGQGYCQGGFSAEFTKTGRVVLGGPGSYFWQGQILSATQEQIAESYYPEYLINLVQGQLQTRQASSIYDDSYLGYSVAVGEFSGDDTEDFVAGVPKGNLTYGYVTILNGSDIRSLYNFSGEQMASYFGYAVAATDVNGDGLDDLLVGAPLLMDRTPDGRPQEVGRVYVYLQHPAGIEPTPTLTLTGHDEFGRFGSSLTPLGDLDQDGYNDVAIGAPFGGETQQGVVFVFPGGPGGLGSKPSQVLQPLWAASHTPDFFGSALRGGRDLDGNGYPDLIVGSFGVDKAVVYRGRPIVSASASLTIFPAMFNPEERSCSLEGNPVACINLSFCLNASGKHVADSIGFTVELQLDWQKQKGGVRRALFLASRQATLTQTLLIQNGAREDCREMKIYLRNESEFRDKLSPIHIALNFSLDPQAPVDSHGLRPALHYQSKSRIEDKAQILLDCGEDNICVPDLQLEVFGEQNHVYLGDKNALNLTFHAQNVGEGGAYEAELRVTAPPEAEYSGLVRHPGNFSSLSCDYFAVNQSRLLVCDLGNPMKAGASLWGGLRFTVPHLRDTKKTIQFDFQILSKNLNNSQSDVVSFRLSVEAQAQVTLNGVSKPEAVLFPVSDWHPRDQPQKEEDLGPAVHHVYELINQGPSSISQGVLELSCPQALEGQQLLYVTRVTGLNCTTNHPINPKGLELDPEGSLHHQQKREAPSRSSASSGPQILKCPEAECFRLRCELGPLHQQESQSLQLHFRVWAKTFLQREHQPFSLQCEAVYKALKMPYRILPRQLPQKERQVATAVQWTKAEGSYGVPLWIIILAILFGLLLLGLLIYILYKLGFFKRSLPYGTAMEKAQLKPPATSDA
α5β1 integrin (UniProt P08648 42-1049; P05556 21-798), sequence (P05556 21-798, chain 2 of 2): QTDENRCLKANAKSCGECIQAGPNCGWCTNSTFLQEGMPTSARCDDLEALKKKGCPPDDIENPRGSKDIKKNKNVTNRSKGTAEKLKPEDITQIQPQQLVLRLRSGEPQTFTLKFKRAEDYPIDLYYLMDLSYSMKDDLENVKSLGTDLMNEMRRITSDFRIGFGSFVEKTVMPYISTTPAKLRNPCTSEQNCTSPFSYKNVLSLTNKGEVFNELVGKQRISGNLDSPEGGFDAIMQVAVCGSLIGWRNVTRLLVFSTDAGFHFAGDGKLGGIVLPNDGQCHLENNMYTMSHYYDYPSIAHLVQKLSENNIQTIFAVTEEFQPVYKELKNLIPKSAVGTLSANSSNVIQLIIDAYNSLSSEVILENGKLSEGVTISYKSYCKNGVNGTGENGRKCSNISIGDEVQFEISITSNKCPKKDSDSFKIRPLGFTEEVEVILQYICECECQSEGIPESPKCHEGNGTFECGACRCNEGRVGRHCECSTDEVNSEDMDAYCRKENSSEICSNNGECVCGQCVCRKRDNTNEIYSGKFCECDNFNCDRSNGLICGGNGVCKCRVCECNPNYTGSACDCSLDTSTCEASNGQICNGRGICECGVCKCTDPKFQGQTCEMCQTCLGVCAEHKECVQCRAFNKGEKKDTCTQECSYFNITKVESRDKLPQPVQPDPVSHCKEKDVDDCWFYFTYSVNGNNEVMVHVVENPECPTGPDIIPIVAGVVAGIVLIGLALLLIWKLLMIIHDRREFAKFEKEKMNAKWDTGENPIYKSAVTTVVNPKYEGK

T1 sequence (P08648 42-894 limits assumed): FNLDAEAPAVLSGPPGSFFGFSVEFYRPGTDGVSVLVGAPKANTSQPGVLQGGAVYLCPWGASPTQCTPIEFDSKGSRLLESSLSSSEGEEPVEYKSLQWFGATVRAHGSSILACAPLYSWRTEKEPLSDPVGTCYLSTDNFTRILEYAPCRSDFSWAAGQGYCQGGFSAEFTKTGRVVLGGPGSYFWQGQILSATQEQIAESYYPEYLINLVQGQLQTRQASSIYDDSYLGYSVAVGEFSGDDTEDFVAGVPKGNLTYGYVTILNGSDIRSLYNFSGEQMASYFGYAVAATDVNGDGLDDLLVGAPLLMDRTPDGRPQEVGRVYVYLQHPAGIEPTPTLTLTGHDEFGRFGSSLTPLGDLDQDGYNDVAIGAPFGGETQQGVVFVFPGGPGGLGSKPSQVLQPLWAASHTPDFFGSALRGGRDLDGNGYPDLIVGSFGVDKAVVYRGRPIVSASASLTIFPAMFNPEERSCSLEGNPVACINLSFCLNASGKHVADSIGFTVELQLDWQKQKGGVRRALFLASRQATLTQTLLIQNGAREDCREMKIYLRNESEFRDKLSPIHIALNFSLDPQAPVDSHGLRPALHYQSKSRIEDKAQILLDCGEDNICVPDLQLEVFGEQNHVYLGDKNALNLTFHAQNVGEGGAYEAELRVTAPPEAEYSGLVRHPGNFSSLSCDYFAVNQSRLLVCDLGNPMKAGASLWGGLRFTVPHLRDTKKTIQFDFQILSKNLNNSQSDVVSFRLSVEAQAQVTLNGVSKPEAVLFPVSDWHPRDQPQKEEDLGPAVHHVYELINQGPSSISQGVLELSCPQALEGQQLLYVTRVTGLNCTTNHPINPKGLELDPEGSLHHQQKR
T1 sequence (P08648 895-1049 limits assumed): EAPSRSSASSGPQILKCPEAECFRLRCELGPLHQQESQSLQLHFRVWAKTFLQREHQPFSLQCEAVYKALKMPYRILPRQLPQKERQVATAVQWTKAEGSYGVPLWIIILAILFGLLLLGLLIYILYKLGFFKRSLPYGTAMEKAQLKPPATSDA
T1 sequence (P05556 21-798): as the sequence (P05556 21-798, chain 2 of 2) above
α4β1 integrin, sequence (P13612 34-1032): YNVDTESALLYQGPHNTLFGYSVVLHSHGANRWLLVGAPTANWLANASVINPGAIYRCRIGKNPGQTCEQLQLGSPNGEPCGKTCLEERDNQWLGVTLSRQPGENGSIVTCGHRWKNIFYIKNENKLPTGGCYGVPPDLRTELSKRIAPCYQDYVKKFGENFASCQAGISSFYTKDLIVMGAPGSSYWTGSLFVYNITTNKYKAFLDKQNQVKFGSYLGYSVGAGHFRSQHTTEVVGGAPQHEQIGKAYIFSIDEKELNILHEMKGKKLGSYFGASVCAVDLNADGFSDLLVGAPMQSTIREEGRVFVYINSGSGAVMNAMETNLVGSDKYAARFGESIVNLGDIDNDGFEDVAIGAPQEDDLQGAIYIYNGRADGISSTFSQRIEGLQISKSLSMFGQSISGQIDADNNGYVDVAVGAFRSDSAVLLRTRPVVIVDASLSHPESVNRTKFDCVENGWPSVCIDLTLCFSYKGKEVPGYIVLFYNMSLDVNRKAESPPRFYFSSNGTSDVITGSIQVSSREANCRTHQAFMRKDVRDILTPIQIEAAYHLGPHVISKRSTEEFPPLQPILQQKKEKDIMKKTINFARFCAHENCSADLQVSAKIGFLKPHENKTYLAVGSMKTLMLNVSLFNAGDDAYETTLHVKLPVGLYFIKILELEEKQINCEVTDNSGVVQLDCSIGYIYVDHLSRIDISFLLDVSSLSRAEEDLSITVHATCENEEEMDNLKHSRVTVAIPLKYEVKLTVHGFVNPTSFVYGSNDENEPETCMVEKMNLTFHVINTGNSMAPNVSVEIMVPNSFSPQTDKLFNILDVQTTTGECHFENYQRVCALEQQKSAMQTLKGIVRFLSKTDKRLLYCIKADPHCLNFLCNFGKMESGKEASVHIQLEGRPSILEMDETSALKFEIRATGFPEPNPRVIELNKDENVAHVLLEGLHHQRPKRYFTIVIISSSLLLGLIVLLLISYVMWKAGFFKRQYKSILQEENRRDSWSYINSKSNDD
α4β1 integrin, sequence (P05556 21-798): as the sequence (P05556 21-798, chain 2 of 2) above

Molecule | inhibition of adhesion of 8A2 stimulated Ramos cells to IIICS-GST [2] | further results
N=C(N)NCCC[C@H](N)C(=O)NCC(=O)N[C@@H](CC(=O)O)C(=O)O [RGD, reference compound] | – | inhibition of K562 adhesion to FN at the maximal concentration tested [1]: completely inhibited
AQPPRARIY (listed as Homo sapiens) [SEQ ID NO:3] | capable of inhibiting β1 integrin dependent cell adhesion | –
ARITGYIIY (listed as Homo sapiens) [SEQ ID NO:14] | exhibit the capability of inhibiting β1 integrin subunit dependent adhesion; also recorded: most active peptide; also recorded: inhibited cell adhesion | –
ARIY (listed as Homo sapiens) [SEQ ID NO:26] | comparable on an equimolar basis to that of Y-tagged FN C/H V | –
IYWQPPRAR (listed as Homo sapiens) [SEQ ID NO:34] | inactive | –
KNNQKSEPLIGR-KKTY (KNNQKSEPLIGRKKTY; listed as Homo sapiens) [FN-C/H II+Y] | – | inhibition of leukocyte adhesion to fibronectin in vitro [3]: inhibit leukocyte adhesion to fibronectin in vitro; anti-inflammatory properties [4]: exhibit anti-inflammatory properties
PPRARIY (listed as Homo sapiens) [SEQ ID NO:23] | also exhibited α4β1 integrin dependent cell adhesion inhibition activity | –
PRARI (listed as Homo sapiens) [SEQ ID NO:39] | not PRARI was able to inhibit | –
PRARIY-OH [SEQ ID NO:24, PRARIY] | comparable on an equimolar basis to that of the 9 residue peptide, Y-tagged FN C/H V; also recorded: able to inhibit | inhibition of K562 adhesion to FN at the maximal concentration tested [1]: completely inhibited; IC50 ([1]; K562 cells stimulated with 1 mM MnCl2, adhesion to FN, read-out: half-maximal inhibitory concentration): ~200 µM
PRQAWRPIY (listed as Homo sapiens) [SEQ ID NO:18] | exhibit the capability of inhibiting β1 integrin subunit dependent adhesion; also recorded: inhibited cell adhesion | –
QPPRARIY (listed as Homo sapiens) [SEQ ID NO:22] | also exhibited α4β1 integrin dependent cell adhesion inhibition activity | –
RARITGYIY (listed as Homo sapiens) [SEQ ID NO:13] | exhibit the capability of inhibiting β1 integrin subunit dependent adhesion; also recorded: exhibited α4β1 integrin dependent cell adhesion inhibition | –
RARIY (listed as Homo sapiens) [SEQ ID NO:25] | comparable on an equimolar basis to that of the 9 residue peptide, Y-tagged FN C/H V | –
RPAPQRWIY (listed as Homo sapiens) [SEQ ID NO:20] | exhibit the capability of inhibiting β1 integrin subunit dependent adhesion; also recorded: inhibited cell adhesion | –
RPQIPWARY (listed as Homo sapiens) [SEQ ID NO:2] | did not inhibit cell adhesion | inhibition of M14#5 cell adhesion to laminin ([5]; laminin coated substrate): has no effect; inhibition of M14#5 cell adhesion to type IV collagen ([5]; type IV collagen coated substrate): has no effect
SPPRRARVTY (listed as Homo sapiens) [FN-C/H IV+Y] | – | inhibition of leukocyte adhesion to fibronectin in vitro [3]: inhibit leukocyte adhesion to fibronectin in vitro

Molecule | inhibition of adhesion of 8A2 stimulated Ramos cells to IIICS-GST [2] | further results
WAPPRARIY (listed as Homo sapiens) [SEQ ID NO:4] | capable of inhibiting β1 integrin dependent cell adhesion | –
WQPIYPRAR (listed as Homo sapiens) [SEQ ID NO:35] | inactive | –
WQPPAARIY (listed as Homo sapiens) [SEQ ID NO:7] | capable of inhibiting β1 integrin dependent cell adhesion | –
WQPPDADIY (listed as Homo sapiens) [SEQ ID NO:38] | inhibits the 8A2 stimulated adhesion of Ramos cells at least as strongly as FN-C/H V+Y; also recorded: does not alter the ability of the peptide to inhibit β1 integrin subunit dependent adhesion | –
WQPPRAAIY (listed as Homo sapiens) [SEQ ID NO:8] | capable of inhibiting β1 integrin dependent cell adhesion | –
WQPPRARI (listed as Homo sapiens) [SEQ ID NO:37, reference compound] | also inactive | –
WQPPRARIF (listed as Homo sapiens) [SEQ ID NO:32] | comparable to that of FN C/H V+Y | –
WQPPRARIW (listed as Homo sapiens) [SEQ ID NO:33] | comparable to that of FN C/H V+Y | –
WQPPRARLY (listed as Homo sapiens) [SEQ ID NO:28] | comparable to that of FN C/H V+Y | –
WQPPRARVY (listed as Homo sapiens) [SEQ ID NO:29] | comparable to that of FN C/H V+Y | –
WQPPRARYI (listed as Homo sapiens) [SEQ ID NO:36] | inactive | –
YIRARPPQW (not fully specified (some residues); listed as Homo sapiens) [SEQ ID NO:40] | – | inhibition of adhesion of 8A2 stimulated Ramos cells to IIICS-GST ([2]; listed as retro inverso FN-C/H V+Y): Neither of these two compounds inhibited Ramos cell binding; inhibition of adhesion of 8A2 stimulated Ramos cells to IIICS-GST ([2]; listed as retro-inverso FN-C/H V−Y): unable to inhibit adhesion
all D-form of FN-C/H V+Y: all D-form of FN-C/H V+Y (SEQ ID NO:1) ([dW][dQ][dP][dP][dR][dA][dR][dI][dY]; listed as Homo sapiens) | Neither of these two compounds inhibited Ramos cell binding | inhibition of adhesion of 8A2 stimulated Ramos cells to IIICS-GST ([2]; listed as D-amino acid FN-C/H V−Y): unable to inhibit adhesion
RIY | – | half-maximal inhibitory concentration (K562 adhesion to FN) [6]: ~0.2 mM
WQPPRARIY [FN-C/H V+Y] | – | half-maximal inhibitory concentration (K562 adhesion to FN) [6]: 0.2 mM
PRARIY | – | half-maximal inhibitory concentration (K562 adhesion to FN) [6]: ~0.2 mM
